We go through one molecule from CN115703835A (BOAOXIN BIOTECHNOLOGY NANJING CO LTD, dated 2023).

For one experiment, the target named is T1, 人CRR9 (表面表达人CRR9的A549细胞) (human, UniProt Q96KA5 1-538).
T1 construct: whole, on cells; CRR9 as expressed by A549 cells; also called CLPTM1L; 顺铂耐药相关蛋白9
T1 sequence (looked up): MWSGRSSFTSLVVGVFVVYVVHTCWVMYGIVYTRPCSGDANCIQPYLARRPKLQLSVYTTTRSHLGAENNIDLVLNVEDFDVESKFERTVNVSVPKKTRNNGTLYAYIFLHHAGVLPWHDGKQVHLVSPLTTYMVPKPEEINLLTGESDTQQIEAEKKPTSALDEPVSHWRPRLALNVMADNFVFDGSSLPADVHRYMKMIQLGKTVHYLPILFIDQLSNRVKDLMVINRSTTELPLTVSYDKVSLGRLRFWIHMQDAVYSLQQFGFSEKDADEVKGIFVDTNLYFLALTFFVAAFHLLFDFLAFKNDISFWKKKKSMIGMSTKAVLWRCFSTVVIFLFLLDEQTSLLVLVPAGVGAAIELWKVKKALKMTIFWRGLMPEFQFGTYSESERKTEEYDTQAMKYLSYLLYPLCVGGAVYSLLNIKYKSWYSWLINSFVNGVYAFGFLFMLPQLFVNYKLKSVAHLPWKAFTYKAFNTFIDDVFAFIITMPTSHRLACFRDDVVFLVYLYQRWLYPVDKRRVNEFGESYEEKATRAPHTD
Description: flow cytometry on A549 cells. For orientation: In flow cytometry, cells or beads pass a laser one at a time.

For experiment [1], the target named is T2, 重组人CRR9蛋白 (human CRR9-TEV-Fc蛋白) (human, UniProt Q96KA5 32-284, biotin-labelled in the capture ELISA and the blocking ELISA (sites not given)).
T2 construct: range 32-284; Made in-house; The order of parts follows the printed name CRR9-TEV-Fc; also called 人CRR9-TEV-Fc; CRR9-生物素; not shown: TEV site; Fc
T2 sequence (looked up): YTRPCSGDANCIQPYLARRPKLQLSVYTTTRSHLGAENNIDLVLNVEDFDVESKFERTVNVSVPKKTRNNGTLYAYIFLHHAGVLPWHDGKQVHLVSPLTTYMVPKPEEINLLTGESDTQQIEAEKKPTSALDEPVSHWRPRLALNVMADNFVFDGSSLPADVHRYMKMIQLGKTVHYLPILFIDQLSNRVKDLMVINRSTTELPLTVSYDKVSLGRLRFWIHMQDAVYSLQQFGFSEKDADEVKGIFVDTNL
Description: capture ELISA: antibody captured on GAM(Fc), biotinylated human CRR9-TEV-Fc at 0.2 ug/ml, SA-HRP.

B1: 小鼠抗人CRR9单克隆抗体 A1C3G3B2 (antibody, V domains shown)
VH: QIQLVQSGPELKKPGETVKISCKASGYTFTNYGMSWVRQAPGKGLKWMGWINTNTGEPTYAEEFKGRFAFSLETSASTAYLQINNLKNEDTATYFCSRDYYYGGRGYFDYWGQGTTLTVSS
VL: QIVLTQSPAIMSASPGEKVTMTCSATSIVSYMHWYQQKSGTSPKRWIYDTSKLASGVPARFSGSGSGTSYSLTISSMEAADAATYYCQQWSYNPLTFGSGTKLELK
notes: Mouse monoclonal antibody purified from a hybridoma; also called 抗CRR9单克隆抗体
As for B1, the binding result (with 人CRR9 (表面表达人CRR9的A549细胞); in experiment [1]) was “binds” each time.
